Results reported in the supplement of paper PMC10567573.

B1: PTPRD (parent)
chain: LTKLREMGREKCHQYWPAERSARY

Variants of: B1
Test: protein stability index of a GFP-peptide fusion (GPS, HEK-293T) (PSI 1-6); higher = more stable
Conditions: c terminus: a fixed tail appended
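Note: lentivirally expressed fusions sorted by FACS into six bins by GFP to DsRed ratio, PSI derived from sequencing read proportions per bin multiplied by bin number.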

Protein stability index, by site and new letter:
Y24: M 2.12; P 2.5; T 2.35; A 2.59; D 3.55
R5: H 2.58; Y 2.23; I 2.44; T 2.38; C 2.62; K 2.29; Q 2.91; M 2.39; A 2.53; N 2.76; D 3.32
R23: T 2.4; V 1.85; C 2.06; L 2.09; A 2.42; M 1.69; Q 1.74; I 1.99
T2: V 1.99; N 2.29; H 2.25; F 1.96; S 2.16; R 2.3; Y 1.97; M 2.29
A22: Y 2.23; C 2.15; N 2.57; F 1.58; Q 2.54; I 2.08; W 1.83; R 2.42; D 2.4
M7: D 3.14; K 2.98; A 2.57; H 2.75; L 1.9; S 2.55; P 2.67; W 1.67; I 2.54
K3: L 2.21; P 2.66; H 2.41; D 2.9; I 2.08; W 1.88
Y15: I 2.59; C 2.6; G 3.46; F 2.86; T 2.82; N 3.19; S 2.92; E 3.54; R 2.82; K 3.1
L4: R 2.92; M 2.65; T 2.77; C 2.12; V 2.48; S 2.99; W 2.12; D 3.29; Y 2.63
Q14: S 2.68; N 2.64; W 1.41; Y 1.85; L 2.5; C 1.82; I 2.27; T 2.62
H13: D 3.17; W 1.77; P 2.43; M 1.97; Q 2.83; C 1.86; E 2.74; R 2.31; V 2.02; Y 2.38; T 2.65; L 2.77
L1: V 2.39; D 3.59; H 2.87; T 2.86; G 2.47; A 2.88; N 3.1; I 2.26; F 1.97
G8: L 1.67; Y 2.03; F 1.73; R 2.53; T 2.95; P 2.44; A 2.02; K 2.04; C 2.39
S21: T 2.77; A 2.58; I 2.99; N 2.17; C 1.7; P 2.24; D 2.83; E 2.15; K 2.72; Y 2.61
E19: Q 2.2; A 2.31; P 2.29; V 1.67; L 1.7; Y 1.86; I 1.91; G 2.18
P17: Y 2.17; S 2.09; L 2.01; Q 2.16; G 2.29; D 2.79; F 1.99; N 1.84; W 2.04; H 1.75; A 2.12; R 2.37
E10: C 2.65; V 2.28; A 2.08; G 2.25; Y 2.48; Q 1.97; R 2.42; H 2.05; L 1.99; S 2.3; T 1.87
C12: I 2.35; L 2.39; M 2.1; S 2.66; Q 2.83; G 2.98; N 3.04; Y 2.98; V 2.35
A18: K 2.48; M 1.97; Q 2.53; S 2.17
